Laboratory results published in publication PMC11168923 (Nature, 2024).

Columns and labels:
FLVCR2 = biological target: T1, FLVCR2 (Homo sapiens, UniProt Q9UPI3); assay: intrinsic tryptophan fluorescence shift (F350/F330); type: binding; conditions: 0.5 µM protein; LMNG; pH 7.4; room temperature
T1 construct: full length; transport: pcDNA3.1 in HEK293 with CHKA or ETNK1; structures and fluorescence: C-terminal FLAG tag, Flp-In T-REx293, LMNG
T1 sequence (Q9UPI3 1-526): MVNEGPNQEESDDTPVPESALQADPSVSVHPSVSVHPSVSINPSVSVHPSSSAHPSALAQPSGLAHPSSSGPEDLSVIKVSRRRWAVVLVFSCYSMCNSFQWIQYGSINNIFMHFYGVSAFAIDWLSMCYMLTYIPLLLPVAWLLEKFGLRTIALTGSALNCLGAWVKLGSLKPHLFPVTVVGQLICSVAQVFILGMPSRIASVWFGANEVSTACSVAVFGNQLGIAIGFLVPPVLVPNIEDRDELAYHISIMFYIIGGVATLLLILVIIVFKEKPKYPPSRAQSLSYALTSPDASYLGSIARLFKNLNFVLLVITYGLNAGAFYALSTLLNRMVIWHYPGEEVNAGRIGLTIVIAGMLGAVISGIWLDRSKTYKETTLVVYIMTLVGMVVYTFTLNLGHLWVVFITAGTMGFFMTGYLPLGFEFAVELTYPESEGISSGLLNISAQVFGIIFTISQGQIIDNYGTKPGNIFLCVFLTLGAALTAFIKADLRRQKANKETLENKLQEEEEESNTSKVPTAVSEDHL

FLVCR1 (FLVCR1a) = biological target: T2, FLVCR1 (FLVCR1a) (Homo sapiens, UniProt Q9Y5Y0); assay: as above; type: binding; conditions: 0.5 µM protein; LMNG; pH 7.4; room temperature
T2 construct: full length; transport: pcDNA3.1 in HEK293 with CHKA or ETNK1; structures and fluorescence: C-terminal FLAG tag, Flp-In T-REx293, LMNG
T2 sequence (Q9Y5Y0 1-555): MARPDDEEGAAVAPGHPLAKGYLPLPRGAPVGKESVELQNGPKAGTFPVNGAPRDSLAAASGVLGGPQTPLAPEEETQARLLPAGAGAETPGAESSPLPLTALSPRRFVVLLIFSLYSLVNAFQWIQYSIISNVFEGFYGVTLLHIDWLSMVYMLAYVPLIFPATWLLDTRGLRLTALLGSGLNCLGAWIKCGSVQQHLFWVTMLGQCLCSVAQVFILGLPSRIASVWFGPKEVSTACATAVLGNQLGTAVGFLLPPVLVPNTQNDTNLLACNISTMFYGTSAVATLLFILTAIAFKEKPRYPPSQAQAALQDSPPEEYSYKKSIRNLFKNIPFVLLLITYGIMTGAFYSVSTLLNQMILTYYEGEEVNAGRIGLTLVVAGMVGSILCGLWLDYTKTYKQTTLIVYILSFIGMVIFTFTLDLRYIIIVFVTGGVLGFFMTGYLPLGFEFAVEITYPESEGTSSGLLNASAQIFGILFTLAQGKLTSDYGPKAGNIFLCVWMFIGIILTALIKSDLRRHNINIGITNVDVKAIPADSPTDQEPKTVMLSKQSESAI

[1] = substrate: C[N+](C)(C)CCO; assay: radioligand uptake dose curve in HEK293 cells; type: cell-based, Homo sapiens; conditions: CHKA co-expressed, DMEM, 37 °C, 1 h, labelled compound
[2] = substrate: NCCO; assay: radioligand uptake dose curve in HEK293 cells; type: cell-based, Homo sapiens; conditions: ETNK1 co-expressed, DMEM, 37 °C, 1 h, labelled compound

## C[N+](C)(C)CCO [choline]
FLVCR2
  shift of F350/F330: Shifts of tryptophan fluorescence of FLVCR1 and FLVCR2 in the presence of choline or betaine
FLVCR1 (FLVCR1a)
  shift of F350/F330: Shifts of tryptophan fluorescence of FLVCR1 and FLVCR2 in the presence of choline or betaine

B1: FLVCR1 (FLVCR1a) (Homo sapiens) (protein)
chain: T2 sequence (Q9Y5Y0 1-555)
notes: full length; transport: pcDNA3.1 in HEK293 with CHKA or ETNK1; structures and fluorescence: C-terminal FLAG tag, Flp-In T-REx293, LMNG
[1]
  Km: 47.4 ± 9.8 µM
[2]
  Km: 8 ± 1.5 µM

B2: FLVCR2 (Homo sapiens) (protein)
chain: T1 sequence (Q9UPI3 1-526)
notes: as for B1
[1]
  Km: 64.0 ± 21.0 µM
[2]
  Km: 41.5 ± 32.0 µM
